The values below are quoted from earlier work in PMC6628625.

The Kd is the equilibrium constant for the complex coming apart.

Read-outs that look alike come from different tables or passages of the source.

In data set [1] the target is calmodulin (Homo sapiens) (UniProt P0DP23).
Data set [2] has the same target. This is another data set of the same source.

On to EF (edema factor) (from UniProt P40136), for which, in data set [1], the Kd is 0.02 µM.

With “AC (adenylate cyclase toxin) (from UniProt P0DKX7)”, the Kd in data set [2] was 0.0002 µM.
